Results: PMC3497011
One block for each substance: values may come before it.

How the values were obtained:
[1] = target: EGFR-GGS, chimeric receptor in which the JM domain is replaced by a (GGS)10 sequence; test: flow cytometry on cells
[2] = target: EGFR-GGS tagged at the C-terminus with a fluorescent protein (EGFR-GGS-YFP and EGFR-GGS-mCherry, co-expressed); test: FRET or BRET
[3] = target: EGFR-GGS, chimeric receptor in which the JM domain is replaced by a (GGS)10 sequence; test: cross-linking

ratio of EGFR-GGS-bound ligand to EGFR-bound ligand [1]: 1
Substance: Alexa Fluor 488-labeled EGF (ligand)

FRET efficiency [2]: 0.25
Substance: EGFR-GGS tagged at the C-terminus with a fluorescent protein (EGFR-GGS-YFP and EGFR-GGS-mCherry, co-expressed) (receptor)

cross-linked fraction (no ligand) [3]: 0.42
cross-linked fraction (with EGF) [3]: 0.64
stoichiometry N [3]: 2
Substance: EGFR-GGS, chimeric receptor in which the JM domain is replaced by a (GGS)10 sequence
